Experiments:
CD86Ig = target: T1, CD86Ig (UniProt P42081 24-247); test: SPR, CD86Ig immobilized, monomeric analytes
T1 construct: extracellular domain; also called soluble CD86Ig; B7-2 Ig
Method: (§1) Association and disassociation analyses were performed using BIA evaluation 2.1 Software (Pharmacia). Association rate constants $kon$ were calculated in two ways, assuming both homogenous single-site interactions and parallel two-site interactions. For single-site interactions, $kon$ values were calculated according to the equation $R_t=Req(1-\exp^{-ks(t-t_0)})$, where R_t is a response at a given time, t; $Req$ is the steady-state response; t_0 is the time at the start of the injection; and $k_s=dR/dt=kon \cdot Ckoff$, and where C is a concentration of analyte, calculated in terms of monomeric binding sites. For two-site interactions $kon$ values were calculated according to the equation $R_t=Req1(1-\exp^{-ks1(t-t_0)})+Req2(1-[…])$. For each model, the values of $kon$ were determined from the calculated slope (to about 70% maximal association) of plots of k_s versus C.

CD80Ig = target: T2, CD80Ig (UniProt P33681 35-242); test: SPR, CD80Ig immobilized, monomeric analytes
T2 construct: extracellular domain; also called soluble CD80Ig; B7-1 Ig
T2 sequence (P33681 whole entry, the tested form may be a part): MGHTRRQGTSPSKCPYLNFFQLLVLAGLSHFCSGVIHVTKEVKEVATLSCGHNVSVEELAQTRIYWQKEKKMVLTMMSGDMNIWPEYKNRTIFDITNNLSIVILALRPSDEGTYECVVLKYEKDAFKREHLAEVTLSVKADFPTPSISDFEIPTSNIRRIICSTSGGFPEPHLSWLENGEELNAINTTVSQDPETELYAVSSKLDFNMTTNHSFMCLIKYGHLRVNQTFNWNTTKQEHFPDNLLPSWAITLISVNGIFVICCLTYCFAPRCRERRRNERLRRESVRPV
Method: as §1

T1 sequence (P42081 24-247): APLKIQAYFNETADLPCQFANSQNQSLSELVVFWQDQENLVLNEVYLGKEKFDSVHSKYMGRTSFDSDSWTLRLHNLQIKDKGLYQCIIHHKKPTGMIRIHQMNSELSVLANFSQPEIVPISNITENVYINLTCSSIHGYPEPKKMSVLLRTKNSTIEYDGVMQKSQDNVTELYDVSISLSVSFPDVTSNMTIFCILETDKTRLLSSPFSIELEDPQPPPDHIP

B1: L104EA29YXC120S (receptor)
chain: MHVAQPAVVLASSRGIASFVCEYASPGKYTEVRVTVLRQADSQVTEVCAATYMMGNELTFLDDSICTGTSSGNQVNLTIQGLRAMDTGLYICKVELMYPPPYYEGIGNGTQIYVIDPEPSPDSD
notes: Monomeric; prepared in an identical manner to CTLA4XC120S; also called single chain L104EA29Y extracellular domain
fold higher affinity than CTLA4X120S (CD86Ig): ~2 fold
fold slower rate of dissociation than CTLA4X120S (CD86Ig): ~3 fold
fold higher affinity than CTLA4X120S (CD80Ig): ~2 fold
fold slower rate of dissociation than CTLA4X120S (CD80Ig): ~3 fold
